Experimental data taken from US6987008B1, “Variant nucleoside-5′-phosphate producing enzyme” (priority 1999, dated 2006).

Tests used:
Type in all cases: biochemical, Escherichia blattae
Conditions in all cases: other: transphosphorylation, 100 mM sodium pyrophosphate, 10–100 mM inosine, pH 4, 30° C., 10 min, cell free extract, Hanes-Woolf
[1] = substrate: OC[C@H]1O[C@@H](n2cnc3c(O)ncnc32)[C@H](O)[C@@H]1O; experiment: Km for inosine, transphosphorylation by S72E/G74D/I153T mutant EB-AP
Procedure: (§1) In order to construct a mutant EB-AP for expression in Escherichia coli JM109, a plasmid pEPI340 containing a gene for G74D/I153T mutant EB-AP was used as a template for site-directed mutagenesis utilizing PCR. The nucleotide sequences of these plasmids pEPI305 and pEPI340 are disclosed in Japanese Patent Laid-open (Kokai) No. 10-201481/1998, paragraph (0143), Table 12. […]
(§2) Then, the Km value for inosine in the transphosphorylation reaction by each 3-residue replaced mutant EB-AP was measured under the following conditions. […] After 200 μl of 1 N hydrochloric acid was added to stop the reaction, the precipitates were removed by centrifugation, and the produced 5′-inosinic acid was quantified. The Km value was calculated by the Hanes-Woolf plotting.
(§3) 5′-Inosinic acid was analyzed by high performance liquid chromatography (HPLC) under the following conditions. • Column: Cosmosil 5C18-AR (4.6×150 mm), produced by Nakarai Tesque • Mobile phase: 5 mM potassium phosphate buffer (pH 2.8)/methanol=95/5 • Flow rate: 1.0 ml/min • Temperature: room temperature • Detection: UV 245 nm

[2] = substrate: OC[C@H]1O[C@@H](n2cnc3c(O)ncnc32)[C@H](O)[C@@H]1O; experiment: Km for inosine, transphosphorylation by S72D/G74D/I153T mutant EB-AP
Procedure: as §1, §2, §3

[3] = substrate: OC[C@H]1O[C@@H](n2cnc3c(O)ncnc32)[C@H](O)[C@@H]1O; experiment: Km for inosine, transphosphorylation by S72V/G74D/I153T mutant EB-AP
Procedure: as §1, §2, §3

[4] = substrate: OC[C@H]1O[C@@H](n2cnc3c(O)ncnc32)[C@H](O)[C@@H]1O; experiment: Km for inosine, transphosphorylation by A72F/10-residue replaced mutant EB-AP
Procedure: Then, the Km value for inosine in the transphosphorylation reaction by each 3-residue replaced mutant EB-AP was measured under the following conditions. A reaction mixture (1 ml) containing 100 mM sodium pyrophosphate, 100 mM acetate buffer (pH 4.0), 10–100 mM inosine and 100 μl of the cell free extract was incubated at pH 4 and 30° C. for 10 minutes. After 200 μl of 1 N hydrochloric acid was added to stop the reaction, the precipitates were removed by centrifugation, and the produced 5′-inosinic acid was quantified. The Km value was calculated by the Hanes-Woolf plotting.
as §3
The S72F mutation that decreased the Km value in the highest degree and the S72E mutation that enhanced the activity in the highest degree in Example 12 were introduced into the 10-residue replaced mutant EB-AP. Since Ser72 was replaced with Ala in the 10-residue replaced mutant EB-AP, the A72F and A72E mutations were actually introduced. […] Furthermore, transphosphorylation activity and reaction rate constant were measured by the method described in Example 12. […]

[5] = substrate: OC[C@H]1O[C@@H](n2cnc3c(O)ncnc32)[C@H](O)[C@@H]1O; experiment: Km for inosine, transphosphorylation by 10-residue replaced mutant EB-AP
[6] = substrate: OC[C@H]1O[C@@H](n2cnc3c(O)ncnc32)[C@H](O)[C@@H]1O; experiment: Km for inosine, transphosphorylation by S72Y/G74D/I153T mutant EB-AP
Procedure: as §1, §2, §3

[7] = substrate: OC[C@H]1O[C@@H](n2cnc3c(O)ncnc32)[C@H](O)[C@@H]1O; experiment: Km for inosine, transphosphorylation by S72W/G74D/I153T mutant EB-AP
Procedure: as §1, §2, §3

[8] = substrate: OC[C@H]1O[C@@H](n2cnc3c(O)ncnc32)[C@H](O)[C@@H]1O; experiment: Km for inosine, transphosphorylation by S72M/G74D/I153T mutant EB-AP
Procedure: as §1, §2, §3

[9] = substrate: OC[C@H]1O[C@@H](n2cnc3c(O)ncnc32)[C@H](O)[C@@H]1O; experiment: Km for inosine, transphosphorylation by G74D/I153T mutant EB-AP
[10] = substrate: OC[C@H]1O[C@@H](n2cnc3c(O)ncnc32)[C@H](O)[C@@H]1O; experiment: Km for inosine, transphosphorylation by S72F/G74D/I153T mutant EB-AP
Procedure: as §1, §2, §3

[11] = substrate: OC[C@H]1O[C@@H](n2cnc3c(O)ncnc32)[C@H](O)[C@@H]1O; experiment: Km for inosine, transphosphorylation by S72T/G74D/I153T mutant EB-AP
Procedure: as §1, §2, §3

B1: Escherichia blattae acid phosphatase (EB-AP, SEQ ID NO: 2 / 124) mutant S72E/G74D/I153T (Shimwellia blattae; G92D/I171T/S90E) (protein)
chain: LVATGNDTTTKPDLYYLKNSEAINSLALLPPPPAVGSIAFLNDQAMYEQGRLLRNTERGKLAAEDANLSEGDVANAFSGAFGSPITEKDAPALHKLLTNMIEDAGDLATRSAKDHYMRIRPFAFYGVSTCNTTEQDKLSKNGSYPSGHTSTGWATALVLAEINPQRQNEILKRGYELGQSRVICGYHWQSDVDAARVVGSAVVATLHTNPAFQQQLQKAKAEFAQHQKK
Km [1]: 40 mM

B2: Escherichia blattae acid phosphatase (EB-AP, SEQ ID NO: 2 / 124) mutant S72D/G74D/I153T (Shimwellia blattae; G92D/I171T/S90D) (protein)
chain: LVATGNDTTTKPDLYYLKNSEAINSLALLPPPPAVGSIAFLNDQAMYEQGRLLRNTERGKLAAEDANLSDGDVANAFSGAFGSPITEKDAPALHKLLTNMIEDAGDLATRSAKDHYMRIRPFAFYGVSTCNTTEQDKLSKNGSYPSGHTSTGWATALVLAEINPQRQNEILKRGYELGQSRVICGYHWQSDVDAARVVGSAVVATLHTNPAFQQQLQKAKAEFAQHQKK
Km [2]: 33 mM

B3: Escherichia blattae acid phosphatase (EB-AP, SEQ ID NO: 2 / 124) mutant S72V/G74D/I153T (Shimwellia blattae; G92D/I171T/S90V) (protein)
chain: LVATGNDTTTKPDLYYLKNSEAINSLALLPPPPAVGSIAFLNDQAMYEQGRLLRNTERGKLAAEDANLSVGDVANAFSGAFGSPITEKDAPALHKLLTNMIEDAGDLATRSAKDHYMRIRPFAFYGVSTCNTTEQDKLSKNGSYPSGHTSTGWATALVLAEINPQRQNEILKRGYELGQSRVICGYHWQSDVDAARVVGSAVVATLHTNPAFQQQLQKAKAEFAQHQKK
Km [3]: 40 mM

B4: Escherichia blattae acid phosphatase (EB-AP, SEQ ID NO: 2 / 124) mutant A72F/10-residue replaced (L63Q/A65Q/E66A/N69D/S71A/S72A/G74D/T135K/E136D/I153T with … (protein)
chain: LVATGNDTTTKPDLYYLKNSEAINSLALLPPPPAVGSIAFLNDQAMYEQGRLLRNTERGKQAQADADLAFGDVANAFSGAFGSPITEKDAPALHKLLTNMIEDAGDLATRSAKDHYMRIRPFAFYGVSTCNTKDQDKLSKNGSYPSGHTSTGWATALVLAEINPQRQNEILKRGYELGQSRVICGYHWQSDVDAARVVGSAVVATLHTNPAFQQQLQKAKAEFAQHQKK
Km [4]: 9 mM

B5: Escherichia blattae acid phosphatase (EB-AP, SEQ ID NO: 2 / 124) 10-residue replaced mutant L63Q/A65Q/E66A/N69D/S71A/S72A/G74D/T135K/E136D/I153T (Shimwellia … (protein)
chain: LVATGNDTTTKPDLYYLKNSEAINSLALLPPPPAVGSIAFLNDQAMYEQGRLLRNTERGKQAQADADLAAGDVANAFSGAFGSPITEKDAPALHKLLTNMIEDAGDLATRSAKDHYMRIRPFAFYGVSTCNTKDQDKLSKNGSYPSGHTSTGWATALVLAEINPQRQNEILKRGYELGQSRVICGYHWQSDVDAARVVGSAVVATLHTNPAFQQQLQKAKAEFAQHQKK
Km [5]: 40 mM

B6: Escherichia blattae acid phosphatase (EB-AP, SEQ ID NO: 2 / 124) mutant S72Y/G74D/I153T (Shimwellia blattae; G92D/I171T/S90Y) (protein)
chain: LVATGNDTTTKPDLYYLKNSEAINSLALLPPPPAVGSIAFLNDQAMYEQGRLLRNTERGKLAAEDANLSYGDVANAFSGAFGSPITEKDAPALHKLLTNMIEDAGDLATRSAKDHYMRIRPFAFYGVSTCNTTEQDKLSKNGSYPSGHTSTGWATALVLAEINPQRQNEILKRGYELGQSRVICGYHWQSDVDAARVVGSAVVATLHTNPAFQQQLQKAKAEFAQHQKK
Km [6]: 25 mM

B7: Escherichia blattae acid phosphatase (EB-AP, SEQ ID NO: 2 / 124) mutant S72W/G74D/I153T (Shimwellia blattae; G92D/I171T/S90W) (protein)
chain: LVATGNDTTTKPDLYYLKNSEAINSLALLPPPPAVGSIAFLNDQAMYEQGRLLRNTERGKLAAEDANLSWGDVANAFSGAFGSPITEKDAPALHKLLTNMIEDAGDLATRSAKDHYMRIRPFAFYGVSTCNTTEQDKLSKNGSYPSGHTSTGWATALVLAEINPQRQNEILKRGYELGQSRVICGYHWQSDVDAARVVGSAVVATLHTNPAFQQQLQKAKAEFAQHQKK
Km [7]: 30 mM

B8: Escherichia blattae acid phosphatase (EB-AP, SEQ ID NO: 2 / 124) mutant S72M/G74D/I153T (Shimwellia blattae; G92D/I171T/S90M) (protein)
chain: LVATGNDTTTKPDLYYLKNSEAINSLALLPPPPAVGSIAFLNDQAMYEQGRLLRNTERGKLAAEDANLSMGDVANAFSGAFGSPITEKDAPALHKLLTNMIEDAGDLATRSAKDHYMRIRPFAFYGVSTCNTTEQDKLSKNGSYPSGHTSTGWATALVLAEINPQRQNEILKRGYELGQSRVICGYHWQSDVDAARVVGSAVVATLHTNPAFQQQLQKAKAEFAQHQKK
Km [8]: 46 mM

B9: Escherichia blattae acid phosphatase (EB-AP, SEQ ID NO: 2 / 124) mutant G74D/I153T (Shimwellia blattae; G92D/I171T) (protein)
chain: LVATGNDTTTKPDLYYLKNSEAINSLALLPPPPAVGSIAFLNDQAMYEQGRLLRNTERGKLAAEDANLSSGDVANAFSGAFGSPITEKDAPALHKLLTNMIEDAGDLATRSAKDHYMRIRPFAFYGVSTCNTTEQDKLSKNGSYPSGHTSTGWATALVLAEINPQRQNEILKRGYELGQSRVICGYHWQSDVDAARVVGSAVVATLHTNPAFQQQLQKAKAEFAQHQKK
Km [9]: 100 mM

B10: Escherichia blattae acid phosphatase (EB-AP, SEQ ID NO: 2 / 124) mutant S72F/G74D/I153T (Shimwellia blattae; G92D/I171T/S90F) (protein)
chain: LVATGNDTTTKPDLYYLKNSEAINSLALLPPPPAVGSIAFLNDQAMYEQGRLLRNTERGKLAAEDANLSFGDVANAFSGAFGSPITEKDAPALHKLLTNMIEDAGDLATRSAKDHYMRIRPFAFYGVSTCNTTEQDKLSKNGSYPSGHTSTGWATALVLAEINPQRQNEILKRGYELGQSRVICGYHWQSDVDAARVVGSAVVATLHTNPAFQQQLQKAKAEFAQHQKK
Km [10]: 20 mM

B11: Escherichia blattae acid phosphatase (EB-AP, SEQ ID NO: 2 / 124) mutant S72T/G74D/I153T (Shimwellia blattae; G92D/I171T/S90T) (protein)
chain: LVATGNDTTTKPDLYYLKNSEAINSLALLPPPPAVGSIAFLNDQAMYEQGRLLRNTERGKLAAEDANLSTGDVANAFSGAFGSPITEKDAPALHKLLTNMIEDAGDLATRSAKDHYMRIRPFAFYGVSTCNTTEQDKLSKNGSYPSGHTSTGWATALVLAEINPQRQNEILKRGYELGQSRVICGYHWQSDVDAARVVGSAVVATLHTNPAFQQQLQKAKAEFAQHQKK
Km [11]: 50 mM
